# Data taken from publication PMC5880795, “Cloning and expression of a novel α-1,3-arabinofuranosidase from Penicillium oxalicum sp. 68” (AMB Express, 2018).
# Tested on: T1, O=[N+]([O-])c1ccc(O[C@@H]2O[C@@H](CO)[C@H](O)[C@H]2O)cc1
# T1 construct: signal peptide (predicted residues 1-30) removed; pPIC9K SnaBI/EcoRI, secreted from Pichia pastoris GS115; no tag mentioned
# Assay: purified protein
# Format: biochemical, Penicillium oxalicum
# Details: 20 mM Na-acetate pH 4.5, 37 °C (standard assay; kinetic conditions not restated)
# Sequence of PoAbf62A (Penicillium oxalicum 114-2) (chain, as listed by the source): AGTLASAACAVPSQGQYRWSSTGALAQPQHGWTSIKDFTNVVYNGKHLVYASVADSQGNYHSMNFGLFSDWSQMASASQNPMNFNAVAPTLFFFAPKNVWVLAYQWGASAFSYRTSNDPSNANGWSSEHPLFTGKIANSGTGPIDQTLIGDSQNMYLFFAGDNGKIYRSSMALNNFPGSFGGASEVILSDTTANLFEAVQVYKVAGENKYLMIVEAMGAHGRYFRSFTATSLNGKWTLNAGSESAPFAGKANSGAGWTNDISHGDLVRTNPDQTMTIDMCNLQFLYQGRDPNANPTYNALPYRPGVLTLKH
substance,measurement,value
PoAbf62A (Penicillium oxalicum 114-2),Km,1360 ± 120 µM
same,kcat,0.27 ± 0.01 s⁻¹
